Ends that are not written are not given here. * marks the point of attachment. Fc = ferrocene monocarboxylic acid coupled as acyl group on the N-terminus, O=C([c-]1cccc1)*.[Fe+2].c1cc[cH-]c1
Target: amyloid beta peptide Aβ(1–42) (UniProt P05067 672-713)
Test: differential pulse voltammetry of the ferrocene tag

- t1/2 at [Fc-KLVFFK6]:[Aβ(1–42)] 1:0.25: 1.29 h
- t1/2 at [Fc-KLVFFK6]:[Aβ(1–42)] 1:0.5: 1.35 h
- t1/2 at [Fc-KLVFFK6]:[Aβ(1–42)] 1:1: 1.53 h
- t1/2 at [Fc-KLVFFK6]:[Aβ(1–42)] 1:2: 1.13 h
- t1/2 at [Fc-KLVFFK6]:[Aβ(1–42)] 1:4: 1.02 h
Binder: Fc-KLVFFKKKKKK [ferrocene-tagged β-sheet breaker peptide Fc-KLVFFK6]

From paper PMC3565064 (Analytical biochemistry, 2012)
